Our source for the Kd values is US20220220200A1 (published 2022).

In one test the target is FMC63. Kind of test: BLI.
Test [1] has as its target T1, CD19 antigen (analyte of the Octet affinity assay) (UniProt P15391 20-291).
T1 chain: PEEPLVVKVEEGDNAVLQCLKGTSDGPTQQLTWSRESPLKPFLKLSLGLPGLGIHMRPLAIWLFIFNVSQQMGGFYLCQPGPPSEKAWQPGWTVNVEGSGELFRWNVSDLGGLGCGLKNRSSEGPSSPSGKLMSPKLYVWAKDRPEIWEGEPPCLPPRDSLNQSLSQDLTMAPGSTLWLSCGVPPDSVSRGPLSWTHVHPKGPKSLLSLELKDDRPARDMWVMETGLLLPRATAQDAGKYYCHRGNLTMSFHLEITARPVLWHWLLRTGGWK
Kind of test: BLI.

B1: CD19 antigen (receptor)
chain: T1 chain
In the test with FMC63, B1 showed a Kd of 10.7 nM.

B2: #78 anti-CD19 scFv-rFc (Fc fusion)
scFv: QAVLTQPPSVSEAPRQRVTISCSGSSSNIGNNAVSWYQQLPGKAPKLLIYYDDLLPSGVSDRFSGSKSGTSASLAISGLQSEDEADYYCAAWDDSLNGWVFGGGTKVTVLGSRGGGGSGGGGSGGGGSLEEVQLVQSGAEVKKPGESLKISCKGSGYSFTSYWIGWVRQMPGKGLEWMGIIYPGDSDTRYSPSFQGQVTISADKSISTAYLQWSSLKASDTAMYYCARLSYSWSSWYWDFWGQGTLVTVSS
The molecule B2 came in with a dissociation constant (Kd) in test [1] of 21.9 nM.

B3: #62 anti-CD19 scFv-rFc (Fc fusion)
scFv: QSVVTQPPSVSGAPGQRVTISCTGSSSNIGAGYDVHWYQQLPGTAPKLLIYENTNRPSGVPDRFSGSKSGTSASLAITGLQAEDEADYYCQSYDSSLSGWRVFGGGTKLTVLGSRGGGGSGGGGSGGGGSLEMAEVQLVQSGAEVKKPGESLKISCKGSGYSFTNSWIGWVRQMPGKGLEWMGLIYPDDSDTRYSPSFQGQVTISADSAINTAYLQWSSLKASDTAMYYCARQSTYIYGGYYDTWGQGTLVTVSS
In the case of B3, the affinity in test [1], expressed as Kd, was 51.1 nM.
